Assay: yeast display, Sf9 membrane polyspecificity reagent, FACS + sequencing; frameworks hold sequencing errors
Outline: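 Polyreactivity labels are assigned by the sorting gate from which each nanobody was recovered. The gates were low and high (top ~1%), set on anti-HA fluorescence for expression and streptavidin fluorescence for reagent binding. Before sorting, galactose-induced (36–48 hours) yeast display cells were stained for 1 hour at 4 °C with 10% biotinylated, detergent-solubilized Sf9 membrane reagent.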
With “QVQLVESGGGLVQAGGSLRLSCAASGSTFDINAMGWYRQAPGKERELVAAINSDARTNYADSVKGRFTISRDNAKNTVYLLMNSLKPEDTAVYYCATDTSHSTYQYGYWGQGTQVSVSS” the “polyreactivity (PSR sort gate)” value was “low polyreactivity”. With “QVQLVESGGGLVQAGGSLRLSCAASGSTFDINAMGWYRQAPGKERELVAAITSGGGTNYADSVKGRFTISRDNAKNTVYLQMNSMKPEDTAVYYCAARVRGKYDYWGQGTQVTVSS” the “polyreactivity (PSR sort gate)” value was “high polyreactivity”. For “QVQLVESGGGLVQAGGSLRLSCAASGSTFDIYAMGWYRQAPGKERELVAAIRGRGGSTYYADSVKGRFTISRDNAKNTVSLQMNSLKPEDTAVYYCAAQTKRQRREFGFWGQGTQVTVSS”, the “polyreactivity (PSR sort gate)” value was “high polyreactivity”. In the case of “QVQLVESGGGLVQAGGSLRLSCAASGSTFDIYAMGWYRQAPGKESELVAAISGSSTRTYYADSVKGRFTISRDNAKYTVYLQMNSLKPEDTPGYYCVGRFYERDYWGQGTQVTVSS”, the “polyreactivity (PSR sort gate)” value is reported as “high polyreactivity”. With “QVQLVESGGGLVQAGGSLRLSCAASGSTFDIYVMGWYRQAPGKERELVAAISRVGNTSYADSVKGRFTISRDNAKNTVYLQMNSLKPEDTAVYYCAADAPSWYDRQYDYWGQGTQVTVSS” the “polyreactivity (PSR sort gate)” value was “low polyreactivity”. With “QVQLVESGGGLVQAGGSLRLSCAASGSTFDLYAMGWYRQAPGKERELVAGISRGGSTYYADSVKGRFTISRDNAKNTVYLQMNSLKPEDTAVYYCAAYFRYRSSRYGYWGQGTQVTVSS” the “polyreactivity (PSR sort gate)” value was “high polyreactivity”. For “QVQLVESGGGLVQAGGSLRLSCAASGSTFDNYAMGWYRQAPGKERELVAAISYSGGSTHYADSVKGRFTISRDNAKNTVYLQMNSLKPEDTAVYYCAADVSGDKGSIHMNYWGQGTQVTVSS”, the “polyreactivity (PSR sort gate)” value was “low polyreactivity”. In the case of “QVQLVESGGGLVQAGGSLRLSCAASGSTFDPNAMGWYRQAPGKERELVASITSRGGSTYYADSVKGRFTISRDNAKNTVYLQMNSLKPEDTAVYYCAAVGGATYSWNGYSWYAWHNYWGQGTQVTVSS”, the “polyreactivity (PSR sort gate)” value is reported as “low polyreactivity”. In the case of “QVQLVESGGGLVQAGGSLRLSCAASGSTFDPNTMGWYRQAPGKDRELVAAITSSTASTYYADSVKGRFTISRDNAKNTVYLQMNSLKPEDTAVYYCAADSEQDNLRYYRWVWYYYWGQGTQVTVSS”, the “polyreactivity (PSR sort gate)” value is reported as “low polyreactivity”. In the case of “QVQLVESGGGLVQAGGSLRLSCAASGSTFDPYAMGWYRQAPGKERELVAAITSGGGTKYADSVKGRFTISRDNAKNTVYLQMNSLKPEDTAVYYCATDIRAEHGYWGQGTQVTVSS”, the “polyreactivity (PSR sort gate)” value is reported as “low polyreactivity”. With “QVQLVESGGGLVQAGGSLRLSCAASGSTFDPYAMGWYRQAPGKERELVAAITWGGGSTYADSVKGRFTISRDNAKNTVYLQMNSLKPEDTAVYYCAAEYYLWLFEYYVEYDYWGQGTQVTVSS” the “polyreactivity (PSR sort gate)” value was “high polyreactivity”. For “QVQLVESGGGLVQAGGSLRLSCAASGSTFDRYAMGWYRQAPGKERELVAAISWSAGRTYYADTVKARFTISRDYAKNTVYLQMNSLKPEDTAVYYCAADQIVSGTYDYYWGQGTQVTVSS”, the “polyreactivity (PSR sort gate)” value was “low polyreactivity”. For “QVQLVESGGGLVQAGGSLRLSCAASGSTFDRYAMGWYRQAPGKERELVAAISWSGGSTYYADSVKGRFTISRDNAKNTVYLQMNSLKPEDTAVYYCARRYARITPVYAPLNYWGQGTQVTVSS”, the “polyreactivity (PSR sort gate)” value was “high polyreactivity”. For “QVQLVESGGGLVQAGGSLRLSCAASGSTFDRYAMGWYRQAPGKERELVAAITGSGGRTYYADSVKGRFTISRDNAKNTVYLQMNSLKPEDTAVYYCAARRSGYYLYSVDYWGQGTQVTVST”, the “polyreactivity (PSR sort gate)” value was “high polyreactivity”. In the case of “QVQLVESGGGLVQAGGSLRLSCAASGSTFDRYAMGWYRQAPGNERELVAAISSSGGTTYYADSVKGRFTITRDNAKTTVYVQMNSLKPEDTAVYYCAAVRYYESRGGYDYWGQGPQVTVSS”, the “polyreactivity (PSR sort gate)” value is reported as “low polyreactivity”. With “QVQLVESGGGLVQAGGSLRLSCAASGSTFDSNDMGWYRQAPGKERELVAGITWSGASTYYADSVKGRFTISRDNAKNTVYLQMNSLKPEDTAVYYCAAGPWGTGHYVQGPVYYYRYDYWGQGTQVTVSS” the “polyreactivity (PSR sort gate)” value was “low polyreactivity”. In the case of “QVQLVESGGGLVQAGGSLRLSCAASGSTFDSYAMGWYRQAPGKERELVAAISRSGGRTYYADSVKGRFTISRDNAKNTVYLQMNSLKPEDTAVYYCNAAYKRWVTPGYDAYDYWGQGTQVTVSS”, the “polyreactivity (PSR sort gate)” value is reported as “high polyreactivity”. With “QVQLVESGGGLVQAGGSLRLSCAASGSTFDSYAMGWYRQDPGKERELFAAITYSGGRTYYADSVKGRFTISRDNAKNTVYLQMNSLKPEDTAVYYCAATGVFRDEYWGQGTQVTVSS” the “polyreactivity (PSR sort gate)” value was “low polyreactivity”. With “QVQLVESGGGLVQAGGSLRLSCAASGSTFDSYRMGWYRQAPGKERELVASISSRGGSTYYADSVKGRFTISRDNAKNTVSLQMNSLKPEATAVYYCAADWLSWFHGYGMYYWGQGTQVTVSS” the “polyreactivity (PSR sort gate)” value was “low polyreactivity”. With “QVQLVESGGGLVQAGGSLRLSCAASGSTFDTNAMGWYRQPPGKERELVASISSAGSTNYADSVKGRFTISRDNAKNTVYLQMNSLKPEDTAVYYCAKYYGQFYPTTLGYWGQGTQVTVSS” the “polyreactivity (PSR sort gate)” value was “low polyreactivity”. For “QVQLVESGGGLVQAGGSLRLSCAASGSTFDTYAMGWYRQAPGKEMELVAVISSGGGTYYADSVKGRFTISRDNAKNTVYLQMNSLKPEDTAVYYCAADRPTPYGYESTYDYWGQGTQVTVSS”, the “polyreactivity (PSR sort gate)” value was “low polyreactivity”. For “QVQLVESGGGLVQAGGSLRLSCAASGSTFDTYGMGWYIQAPGKERELDASISSRGGSTYYADSVEGRFTISRDNAKNSVYLQMNSLKPDDTAVYYCAADWLSWFHGYGMYYWGQGTKVTVSS”, the “polyreactivity (PSR sort gate)” value was “low polyreactivity”. In the case of “QVQLVESGGGLVQAGGSLRLSCAASGSTFDTYTRGWYRQAPGKERELVAAITTSGGSTYYADSVKGRFTISRDNAKNTVYLQMNSLKPEDTAVYYCAADFFPGGYPEMDYWGQGTQVTVSS”, the “polyreactivity (PSR sort gate)” value is reported as “high polyreactivity”. With “QVQLVESGGGLVQAGGSLRLSCAASGSTFDVYAMGWYRQAPGKERELVAAITWIGGSTYYADSVKGRFTISRDNAKNTVYLQMNSLKPEDTAVYYCARHDYGWVDYWGQGTQVTVSS” the “polyreactivity (PSR sort gate)” value was “high polyreactivity”. In the case of “QVQLVESGGGLVQAGGSLRLSCAASGSTFDVYAMGWYRQAPGKERELVAALTSGGTTNYADSVKGRFTISRDNAKNTVYLQMNSLKPEDTAVSYCNARLTLRSYDYWGQGTLVTVSS”, the “polyreactivity (PSR sort gate)” value is reported as “low polyreactivity”. For “QVQLVESGGGLVQAGGSLRLSCAASGSTFDYNSMGWYRQAPGKERELVATINDSGGNTYYADSVKGRFTISRDNAKNTVYLQMNSLKPEDTAVYYCATVGYLYTPVVVTWWDWGDYWGQGTQVTVSS”, the “polyreactivity (PSR sort gate)” value was “low polyreactivity”. With “QVQLVESGGGLVQAGGSLRLSCAASGSTFDYNTMGWYRQAPGKERELVAVITYSGGRTYYADSVKGRFTISRDNAKNTVYLQMNSLKPEDTAVYYCNARYGYPLGHSIYYYWGQGTQVTVSS” the “polyreactivity (PSR sort gate)” value was “low polyreactivity”. For “QVQLVESGGGLVQAGGSLRLSCAASGSTFDYYAMGWYRQAPGKERELVAAISRTGGRTYYADSVKGRFTISRDNAKNTVYLQMNSLKPEDTAVYYCNAVTRIGGGDYDYWGQGTQVTGSS”, the “polyreactivity (PSR sort gate)” value was “low polyreactivity”. For “QVQLVESGGGLVQAGGSLRLSCAASGSTFDYYAMVWYRQAPGKEREFVAAISYSGGSTYYADSVKGRFTISRDNAKNTVYLQMNSLKPEDTAVYYCAAEGYYYNLYYWGQGTEVTVSS”, the “polyreactivity (PSR sort gate)” value was “high polyreactivity”. For “QVQLVESGGGLVQAGGSLRLSCAASGSTFDYYARGGYRQAPGKERELVAAISRTGGRTYYADSVKGRFTISRDNAKNTVNLQMNSLKPEDTAVYNCNAVTRIGGGDYDYWGQGTQVTVSS”, the “polyreactivity (PSR sort gate)” value was “low polyreactivity”. In the case of “QVQLVESGGGLVQAGGSLRLSCAASGSTFDYYDRGWFRQAPGKERELVAAISSGGDSTYYADSVKGRFTISRDNEKNTVYLQMNSLKPEDTAVYYCAAAVYYGQSVWYYYWGQGTQVTVSS”, the “polyreactivity (PSR sort gate)” value is reported as “high polyreactivity”. With “QVQLVESGGGLVQAGGSLRLSCAASGSTFDYYTIGWYRQAPGKERELVAAISSSGGSTYYADSVKGRFTISRDNAKNTVYLQMNSLKPEDTAVYYCAADPSPYGDEYDYWGQGTQVTVSS” the “polyreactivity (PSR sort gate)” value was “low polyreactivity”. In the case of “QVQLVESGGGLVQAGGSLRLSCAASGSTFDYYTMGWYRQAPGKERELVAAISYSGSRTYYADSVKGRFTISRDNAKNTVYLQMNSLKPEDTAVYYCARVASSVWYKQEYSYYNFDYWGQGTQVTVSS”, the “polyreactivity (PSR sort gate)” value is reported as “high polyreactivity”. With “QVQLVESGGGLVQAGGSLRLSCAASGSTFEANAMGWYRQAPGKERELVAVITWTGGSTYYADSVKGRFTISRDNAKNTVYLQMNSLKPEDTAVDYCAADGVVPGRFFWPAHEYDYWGQGTQVTVSS” the “polyreactivity (PSR sort gate)” value was “low polyreactivity”. With “QVQLVESGGGLVQAGGSLRLSCAASGSTFEGNAMVWYRPAPGKERELVAAISSGGRTYYADSVKGRFTISRDNAKNTVYLQMNSLKPEDTAVYYCAAYVRRGFDWGQGTQVTVSS” the “polyreactivity (PSR sort gate)” value was “high polyreactivity”. For “QVQLVESGGGLVQAGGSLRLSCAASGSTFEQNAMGWYRQAPGKEREFVAAITGSGGSTYYADSVKGRFTISRDNAKNTVYLQMNSLKPEDTAVYYCAADIQDGLYWWDIYDYWGQGTQVTVSS”, the “polyreactivity (PSR sort gate)” value was “low polyreactivity”. In the case of “QVQLVESGGGLVQAGGSLRLSCAASGSTFEQYAMGWYRQAPGKERELVASISTGGGRTYYADSVKGRFTISRDNAKNTVFLQMNSLKPEDTAVYYCNKRYRGYKTGYSRYDYWGQGTQVTVSS”, the “polyreactivity (PSR sort gate)” value is reported as “low polyreactivity”. For “QVQLVESGGGLVQAGGSLRLSCAASGSTFERYAMGWYRPAPGKERELVAAISAIGDSTYYADSVKGRFTISRDNAKNTVYLQMNSLKPEDTAVYYCAARYTRYHIGRGYYYWGQGTQVTVSS”, the “polyreactivity (PSR sort gate)” value was “high polyreactivity”. In the case of “QVQLVESGGGLVQAGGSLRLSCAASGSTFESNAMGWYRQAPGKERELVAAISSSGGSTYYADSVKGRFTISRDNAKNTVYLQMNSLKPEDTAVYYCNKGGLSDYDYWGQGTQVTVSS”, the “polyreactivity (PSR sort gate)” value is reported as “high polyreactivity”. In the case of “QVQLVESGGGLVQAGGSLRLSCAASGSTFESNAMGWYRQAPGKERELVAAISTSGGSTYYADSVKGRFTISRDNAKNTVYLQMNSLKPEDKAVYYCNAYPEAVRWKYNYWGQGTQVTVSS”, the “polyreactivity (PSR sort gate)” value is reported as “low polyreactivity”. With “QVQLVESGGGLVQAGGSLRLSCAASGSTFESNTMGWYRQAPGKERELVAASSYSGGRTYYADSVKGRFTISRVNAKNTVYFQMNILKPEDTAVYSCAARWSVSYRMYYWGQGTQVTVSS” the “polyreactivity (PSR sort gate)” value was “high polyreactivity”. In the case of “QVQLVESGGGLVQAGGSLRLSCAASGSTFETYAMGLYRKAPGKDRELVAAITWAGDTSYADSVKGRFTISRDNAKHTVYLQMNSLKPEDTAVYYCAKDNGRAYFGRSPYDYWGQGTQVTVTS”, the “polyreactivity (PSR sort gate)” value is reported as “low polyreactivity”. In the case of “QVQLVESGGGLVQAGGSLRLSCAASGSTFEVYAMGWYRQAPGKERELVAVINVSDGSTYYADSVKGRFTISRDNAKNTVYLQMNSLKPEDTAVYYCAAYLYNRPYQLTGYYDGYGYWGQGTQVTVSS”, the “polyreactivity (PSR sort gate)” value is reported as “low polyreactivity”.
